Experimental data published in patent publication US20150111820A1, “NOVEL USE OF INSULIN DERIVATIVES” (Novo Nordisk A/S, priority 2012, published 2015).

Set-up: species or system humans
Conditions: in vivo
Experimental: The simulation was performed using the software WinNonlin Professional 5.3 (Pharsight Inc., Mountain View, Calif., USA).

Substance: A14E, B25H, B29K(N^ε-octadecandioyl-γGlu-OEG-OEG), desB30 human insulin [Compound 6]
- elimination half-life: 52 h
- elimination rate constant: 0.013 h⁻¹

Substance: A14E, B25H, desB27, B29K(N^ε-(octadecandioyl-γGlu), desB30 human insulin [Compound 4]
- terminal half-life compared with Compound 6: almost the same terminal half-life
